Measurements as given in paper PMC4539205.

Key:
[1] = molecular target: recombinant NA (rNA) of avian A/turkey/Turkey/1/2005 (H5N1): 6xHis-tag, tetrabrachion tetramerization domain, two glycines, NA amino acids 51-449 (Staphylothermus marinus | influenza A virus, avian A/turkey/Turkey/1/2005 (H5N1)); assay: SEC; […], Tris 50 mM, 150 mM NaCl pH 8, CaCl2 10 mM; […]
[2] = molecular target: recombinant NA (rNA) of avian A/turkey/Turkey/1/2005 (H5N1): 6xHis-tag, tetrabrachion tetramerization domain, two glycines, NA amino acids 51-449 (Staphylothermus marinus | influenza A virus, avian A/turkey/Turkey/1/2005 (H5N1)); assay: negative-stain TEM with single-particle 3D reconstruction
[3] = molecular target: recombinant NA (rNA) of swine A/California/07/2009 (H1N1): 6xHis-tag, tetrabrachion tetramerization domain, two glycines, NA amino acids 71-469 (Staphylothermus marinus | influenza A virus, swine A/California/07/2009 (H1N1)); assay: SEC; […], Tris 50 mM, 150 mM NaCl pH 8, CaCl2 10 mM; […]

Row | Substance | stoichiometry N [1] | stoichiometry N [2] | stoichiometry N [3]
1 | recombinant NA (rNA) of avian A/turkey/Turkey/1/2005 (H5N1): 6xHis-tag, tetrabrachion tetramerization domain, two glycines, NA amino acids 51-449 (enzyme) | 4 | 4 | 
2 | recombinant NA (rNA) of swine A/California/07/2009 (H1N1): 6xHis-tag, tetrabrachion tetramerization domain, two glycines, NA amino acids 71-469 (enzyme) |  |  | 4
